The target of data set [1] is T1, ZRANB2-F12 delta45-64 (Homo sapiens, UniProt O95218 O95218:1-44+65-95, del45-64). The experiment in a line: FP. The note with it: label: 5'-fluorescein.
In data set [2] the target is EKLF-F123 (UniProt P46099 P46099:275-357). The experiment in a line: FP; higher affinity than poly(C) or AGGUAA; also HSQC titration. The note with it: tags: zinc fingers 1-3.
For data set [3], the target named is EWS RanBP2-type zinc finger (Homo sapiens, UniProt Q01844 Q01844:518-549). Briefly: FP; value in figure only. The conditions noted are these: tags: expressed as GST fusion. On the procedure:
(§1) Fluorescence Anisotropy titrations e.g., as shown in FIGS. 1D-F, 8 and 35, were carried out using standard protocols. In brief, 5′-Fluorescein-labeled RNA oligonucleotides were quantified by A₂₆₀, correcting for fluorescein absorbance by using A₄₉₃. For single-site experiments, the sequence […] (SEQ ID NO: 28), or single base mutants thereof, was used. For double-site experiments, two AGGUAA sites were separated by different length sequences as indicated, and the total oligonucleotide lengths were kept constant by the symmetrical addition of adenines to each end. The anisotropy titrations were performed with a starting RNA concentration of 50 nM in a buffer comprising either 10 mM Tris (pH 8.0), 50 mM KCl, 5 mM MgCl₂, 0.05 mg/mL heparin, and 1 mM DTT (for GST fusion constructs) or 10 mM Mops (pH 7.3), 50 mM NaCl, 0.05 mg/mL heparin, and 1 mM DTT (for ZRANB2-F12). RNasin (Promega) was also added to the protein solution to a concentration of 2 units/μL. Protein was titrated into this starting solution and anisotropy values measured on a Cary Eclipse fluorescence spectrophotometer fitted with manual polarizer and long-pass filters set to 475 and 515 nm for excitation and emission, respectively. […] Association constants were determined by nonlinear least squares regression analysis using a 1:1 binding model.

Data set [4] addresses T2, ZRANB2-F2 (untagged) (Homo sapiens, UniProt O95218 O95218:65-95).
T2 chain: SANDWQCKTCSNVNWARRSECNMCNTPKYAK
Briefly: structure; crystal structure 1.4 A; W79 stacks between G2 and G3.

Data set [5] has as its target T3, ZRANB2-F2 R82N (Homo sapiens, UniProt O95218 O95218:65-95, R82N).
T3 chain: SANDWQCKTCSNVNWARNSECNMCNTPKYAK
Briefly: FP; also about 2-fold increase versus WT F2. The conditions noted are these: label: 5'-fluorescein. The procedure: The anisotropy titrations were performed with a starting RNA concentration of 50 nM in a buffer comprising either 10 mM Tris (pH 8.0), 50 mM KCl, 5 mM MgCl₂, 0.05 mg/mL heparin, and 1 mM DTT (for GST fusion constructs) or 10 mM Mops (pH 7.3), 50 mM NaCl, 0.05 mg/mL heparin, and 1 mM DTT (for ZRANB2-F12). RNasin (Promega) was also added to the protein solution to a concentration of 2 units/μL. Protein was titrated into this starting solution and anisotropy values measured on a Cary Eclipse fluorescence spectrophotometer fitted with manual polarizer and long-pass filters set to 475 and 515 nm for excitation and emission, respectively. Excitation and emission wavelengths were set at 495 and 520 nm, respectively (10-nm slits) and the temperature was maintained at 25° C. by using a block temperature controller. Association constants were determined by nonlinear least squares regression analysis using a 1:1 binding model. […]

Data set [6] addresses ZRANB2-F12 delta47-61 (Homo sapiens, UniProt O95218 O95218:1-46+62-95, del47-61). Briefly: FP; about 30-51e6 stated; order comparable to wild-type F12. The note with it: label: 5'-fluorescein. The procedure:
as §1, with “The anisotropy titrations were performed with a starting RNA concentration of 50 nM in a buffer comprising either 10 mM Tris (pH 8.0), 50 mM KCl, 5 mM MgCl₂, 0.05 mg/mL heparin, and 1 mM DTT (for GST fusion constructs) or 10 mM Mops (pH 7.3), 50 mM NaCl, 0.05 mg/mL heparin, and 1 mM DTT (for ZRANB2-F12). RNasin (Promega) was also added to the protein solution to a concentration of 2 units/μL.” left out
(§2) The inventors have employed deletion mutagenesis to thereby identify a minimal inter-finger linker region of ZRANB2 required for specific ssRNA-binding. […] The deletion constructs were then tested for an ability to bind the ssRNA substrate 5′-GGUNXGGU-3′ comprising a repeat of the GGU core sequence using fluorescence anisotropy titration.

In data set [7] the target is T1, ZRANB2-F12 delta45-64. The experiment in a line: FP; lower affinity than F122. The note with it: label: 5'-fluorescein. On the procedure:
as §1, with “model. […]” for “model.”

The target of data set [8] is T4, ZRANB2-F12 (Homo sapiens, UniProt O95218 O95218:1-95). The experiment in a line: FP; range stated for deletion construct and comparable wild type. The conditions noted are these: tags: GST removed for FA, gel shift and SPR; label: 5'-fluorescein. The procedure: as §1, with “The anisotropy titrations were performed with a starting RNA concentration of 50 nM in a buffer comprising either 10 mM Tris (pH 8.0), 50 mM KCl, 5 mM MgCl₂, 0.05 mg/mL heparin, and 1 mM DTT (for GST fusion constructs) or 10 mM Mops (pH 7.3), 50 mM NaCl, 0.05 mg/mL heparin, and 1 mM DTT (for ZRANB2-F12). RNasin (Promega) was also added to the protein solution to a concentration of 2 units/μL.” left out
as §2
In general terms: Mobility shift assays separate free from complexed probe on a gel.

Data set [9] has as its target T4, ZRANB2-F12. Briefly: FP; affinity increases with spacing; value in figure only. The note with it: tags: GST removed for FA, gel shift and SPR; label: 5'-fluorescein. On the procedure: as §1, with “The anisotropy titrations were performed with a starting RNA concentration of 50 nM in a buffer comprising either 10 mM Tris (pH 8.0), 50 mM KCl, 5 mM MgCl₂, 0.05 mg/mL heparin, and 1 mM DTT (for GST fusion constructs) or 10 mM Mops (pH 7.3), 50 mM NaCl, 0.05 mg/mL heparin, and 1 mM DTT (for ZRANB2-F12). RNasin (Promega) was also added to the protein solution to a concentration of 2 units/μL.” left out
The importance of the spacing between AGGUAA motifs was assessed by measuring binding of F12 to double sites that were separated by −1 to 8 nt (where −1 denotes the sequence […] SEQ ID NO: 33; FIG. 1E, lanes 5-10).

EKLF-F123, sequence (P46099 275-357, one chain of several): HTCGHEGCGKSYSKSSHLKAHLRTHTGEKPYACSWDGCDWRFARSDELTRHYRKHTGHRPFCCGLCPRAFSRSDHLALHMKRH
EWS RanBP2-type zinc finger, sequence (Q01844 518-549, one chain of several): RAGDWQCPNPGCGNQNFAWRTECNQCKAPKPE

B1: GGUGGUGGU 13-mer (ssRNA)
RNA: AAGGUGGUGGUAA
The molecule B1 registered a Ka in data set [1] of around 2.5e+07 M⁻¹.

B2: U9 (ssRNA)
RNA: UUUUUUUUU
On to B2, for which the binding result in data set [2] is reported as “binds”.

B3: AGGUAA hexamer (ssRNA)
RNA: AGGUAA
Consider B3, for which the binding result in data set [3] and in data set [4] was “binds” throughout.

B4: AGUUAA (3U) (ssRNA)
RNA: AGUUAA
B4 registered a binding signal in data set [5] of around 2 fold higher than AGGUAA.

B5: GGUGGU 13-mer (ssRNA)
RNA: AAAGGUGGUAAAA
For the molecule B5, the binding result in [6], in data set [7] and in [8] was “binds” each time.

B6: double site spacing -1 (ssRNA)
RNA: AGGUAAGGUAA
Turning to B6, the binding result in [9] is “binds”.

The record behind these values is patent US20130022590, “Compositions Comprising Zinc Finger Domains and Uses Therefor” (published 2013).
